Measurements taken from article PMC3115801 (The Journal of Cell Biology, 2011).

Molecular target: T1, bacterially purified Epac1 (amino acids 149–882) (human, UniProt O95398-3 149-881)
T1 sequence (looked up): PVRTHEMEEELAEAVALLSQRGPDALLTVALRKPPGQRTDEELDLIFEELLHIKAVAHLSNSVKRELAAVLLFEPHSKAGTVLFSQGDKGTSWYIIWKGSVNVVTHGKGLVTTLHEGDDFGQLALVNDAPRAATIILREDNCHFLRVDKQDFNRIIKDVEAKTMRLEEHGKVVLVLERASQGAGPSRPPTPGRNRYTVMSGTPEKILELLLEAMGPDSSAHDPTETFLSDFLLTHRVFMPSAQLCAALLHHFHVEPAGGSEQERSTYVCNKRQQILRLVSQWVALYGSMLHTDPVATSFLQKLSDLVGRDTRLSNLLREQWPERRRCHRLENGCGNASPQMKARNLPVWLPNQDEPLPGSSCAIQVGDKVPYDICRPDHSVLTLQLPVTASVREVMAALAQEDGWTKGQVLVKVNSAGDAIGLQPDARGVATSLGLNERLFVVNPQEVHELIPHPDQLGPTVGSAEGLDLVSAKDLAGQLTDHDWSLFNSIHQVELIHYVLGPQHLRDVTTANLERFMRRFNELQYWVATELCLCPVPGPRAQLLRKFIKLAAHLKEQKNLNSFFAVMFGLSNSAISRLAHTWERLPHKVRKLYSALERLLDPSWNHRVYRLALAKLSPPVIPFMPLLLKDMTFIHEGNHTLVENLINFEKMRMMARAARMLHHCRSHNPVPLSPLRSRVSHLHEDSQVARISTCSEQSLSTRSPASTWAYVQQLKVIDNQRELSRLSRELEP
Assay: pull-down

B1: GST-tagged bacterially purified ZNF domain of RanBP2 (domain or fragment, UniProt P49792 1341-1819, looked up)
chain: NLNFEFQVAKKEGSWWHCNSCSLKNASTAKKCVSCQNLNPSNKELVGPPLAETVFTPKTSPENVQDRFALVTPKKEGHWDCSICLVRNEPTVSRCIACQNTKSANKSGSSFVHQASFKFGQGDLPKPINSDFRSVFSTKEGQWDCSACLVQNEGSSTKCAACQNPRKQSLPATSIPTPASFKFGTSETSKTLKSGFEDMFAKKEGQWDCSSCLVRNEANATRCVACQNPDKPSPSTSVPAPASFKFGTSETSKAPKSGFEGMFTKKEGQWDCSVCLVRNEASATKCIACQNPGKQNQTTSAVSTPASSETSKAPKSGFEGMFTKKEGQWDCSVCLVRNEASATKCIACQNPGKQNQTTSAVSTPASSETSKAPKSGFEGMFTKKEGQWDCSVCLVRNEASATKCIACQCPSKQNQTTAISTPASSEISKAPKSGFEGMFIRKGQWDCSVCCVQNESSSLKCVACDASKPTHKPIAEAPS
B1: binds.
